The source of these data is IntAct's records for PubMed 25910212.

B1: Corrinoid adenosyltransferase MMAB (Homo sapiens), Q96EY8 (parent)
chain: MAVCGLGSRLGLGSRLGLRGCFGAARLLYPRFQSRGPQGVEDGDRPQPSSKTPRIPKIYTKTGDKGFSSTFTGERRPKDDQVFEAVGTTDELSSAIGFALELVTEKGHTFAEELQKIQCTLQDVGSALATPCSSAREAHLKYTTFKAGPILELEQWIDKYTSQLPPLTAFILPSGGKISSALHFCRAVCRRAERRVVPLVQMGETDANVAKFLNRLSDYLFTLARYAAMKEGNQEKIYMKNDPSAESEGL
partner: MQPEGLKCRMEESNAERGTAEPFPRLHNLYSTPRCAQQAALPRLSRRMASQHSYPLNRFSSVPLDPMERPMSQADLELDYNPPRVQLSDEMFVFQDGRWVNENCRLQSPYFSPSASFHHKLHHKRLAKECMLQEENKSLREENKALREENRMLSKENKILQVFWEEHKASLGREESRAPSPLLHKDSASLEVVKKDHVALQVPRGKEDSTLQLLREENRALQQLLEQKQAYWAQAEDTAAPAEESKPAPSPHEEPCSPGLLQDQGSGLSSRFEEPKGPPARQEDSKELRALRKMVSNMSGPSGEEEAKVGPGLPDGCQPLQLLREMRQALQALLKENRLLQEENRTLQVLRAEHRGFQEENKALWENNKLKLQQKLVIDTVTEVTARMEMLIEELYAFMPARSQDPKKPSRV
B2: DNA mismatch repair protein Mlh1 (Homo sapiens), P40692 (parent)
chain: MSFVAGVIRRLDETVVNRIAAGEVIQRPANAIKEMIENCLDAKSTSIQVIVKEGGLKLIQIQDNGTGIRKEDLDIVCERFTTSKLQSFEDLASISTYGFRGEALASISHVAHVTITTKTADGKCAYRASYSDGKLKAPPKPCAGNQGTQITVEDLFYNIATRRKALKNPSEEYGKILEVVGRYSVHNAGISFSVKKQGETVADVRTLPNASTVDNIRSIFGNAVSRELIEIGCEDKTLAFKMNGYISNANYSVKKCIFLLFINHRLVESTSLRKAIETVYAAYLPKNTHPFLYLSLEISPQNVDVNVHPTKHEVHFLHEESILERVQQHIESKLLGSNSSRMYFTQTLLPGLAGPSGEMVKSTTSLTSSSTSGSSDKVYAHQMVRTDSREQKLDAFLQPLSKPLSSQPQAIVTEDKTDISSGRARQQDEEMLELPAPAEVAAKNQSLEGDTTKGTSEMSEKRGPTSSNPRKRHREDSDVEMVEDDSRKEMTAACTPRRRIINLTSVLSLQEEINEQGHEVLREMLHNHSFVGCVNPQWALAQHQTKLYLLNTTKLSEELFYQILIYDFANFGVLRLSEPAPLFDLAMLALDSPESGWTEEDGPKEGLAEYIVEFLKKKAEMLADYFSLEIDEEGNLIGLPLLIDNYVPPLEGLPIFILRLATEVNWDEEKECFESLSKECAMFYSIRKQYISEESTLSGQQSEVPGSIPNSWKWTVEHIVYKALRSHILPPKHFTEDGNILQLANLPDLYKVFERC
partner: B1 partner
B3: Sodium/myo-inositol cotransporter 2 (Homo sapiens), Q8WWX8-3 (parent)
chain: MVWWPVGASLFASNVGSGHFIGLAGSGAATGISVSAYELNGLFSVLMLAWIFLPIYIAGQVTTMPEYLRKRFGGIRIPIILAVLYLFIYIFTKISVDMYAGAIFIQQSLHLDLYLAIVGLLAITAVYTVAGGLAAVIYTDALQTLIMLIGALTLMGYSFAAVGGMEGLKEKYFLALASNRSENSSCGLPREDAFHIFRDPLTSDLPWPGVLFGMSIPSLWYWCTDQVIVQRTLAAKNLSHAKGGALMAAYLKVLPLFIMVFPGMVSRILFPDQVACADPEICQKICSNPSGCSDIAYPKLVLELLPTGLRGLMMAVMVAALMSSLTSIFNSASTIFTMDLWNHLRPRASEKELMIVGRVFVLLLVLVSILWIPVVQASQGGQLFIYIQSISSYLQPPVAVVFIMGCFWKRTNEKGAFWGLISGLLLGLVRLVLDFIYVQPRCDQPDERPVLVKSIHYLYFSMILSTVTLITVSTVSWFTEPPSKEMVSHLTWFTRHDPVVQKEQAPPAAPLSLTLSQNGMPEASSSSSVQFEMVQENTSKTHSCDMTPKQSKVVKAILWLCGIQEKGKEELPARAEAIIVSLEENPLVKTLLDVNLIFCVSCAIFIWGYFA
B4: Carbonic anhydrase-related protein (Homo sapiens), P35219 (parent)
chain: MADLSFIEDTVAFPEKEEDEEEEEEGVEWGYEEGVEWGLVFPDANGEYQSPINLNSREARYDPSLLDVRLSPNYVVCRDCEVTNDGHTIQVILKSKSVLSGGPLPQGHEFELYEVRFHWGRENQRGSEHTVNFKAFPMELHLIHWNSTLFGSIDEAVGKPHGIAIIALFVQIGKEHVGLKAVTEILQDIQYKGKSKTIPCFNPNTLLPDPLLRDYWVYEGSLTIPPCSEGVTWILFRYPLTISQLQIEEFRRLRTHVKGAELVEGCDGILGDNFRPTQPLSDRVIRAAFQ
partner: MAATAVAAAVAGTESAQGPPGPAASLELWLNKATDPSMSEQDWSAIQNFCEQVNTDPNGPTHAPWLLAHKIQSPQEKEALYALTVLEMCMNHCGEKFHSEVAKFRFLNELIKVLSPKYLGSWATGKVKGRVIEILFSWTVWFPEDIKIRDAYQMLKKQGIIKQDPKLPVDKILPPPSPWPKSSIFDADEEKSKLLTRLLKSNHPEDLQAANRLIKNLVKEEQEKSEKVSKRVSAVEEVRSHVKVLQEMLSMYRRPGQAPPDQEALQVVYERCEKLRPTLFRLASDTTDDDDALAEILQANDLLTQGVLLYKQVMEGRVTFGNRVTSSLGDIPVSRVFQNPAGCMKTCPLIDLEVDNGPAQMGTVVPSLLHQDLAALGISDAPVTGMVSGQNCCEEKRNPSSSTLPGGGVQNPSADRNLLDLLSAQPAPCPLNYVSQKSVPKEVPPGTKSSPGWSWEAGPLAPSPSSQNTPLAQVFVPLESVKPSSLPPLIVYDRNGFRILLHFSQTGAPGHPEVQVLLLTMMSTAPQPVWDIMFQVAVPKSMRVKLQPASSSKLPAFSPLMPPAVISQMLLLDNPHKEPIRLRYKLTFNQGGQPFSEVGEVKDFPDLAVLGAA
B5: Multifunctional procollagen lysine hydroxylase and glycosyltransferase LH3 (Homo sapiens), O60568 (parent)
chain: MTSSGPGPRFLLLLPLLLPPAASASDRPRGRDPVNPEKLLVITVATAETEGYLRFLRSAEFFNYTVRTLGLGEEWRGGDVARTVGGGQKVRWLKKEMEKYADREDMIIMFVDSYDVILAGSPTELLKKFVQSGSRLLFSAESFCWPEWGLAEQYPEVGTGKRFLNSGGFIGFATTIHQIVRQWKYKDDDDDQLFYTRLYLDPGLREKLSLNLDHKSRIFQNLNGALDEVVLKFDRNRVRIRNVAYDTLPIVVHGNGPTKLQLNYLGNYVPNGWTPEGGCGFCNQDRRTLPGGQPPPRVFLAVFVEQPTPFLPRFLQRLLLLDYPPDRVTLFLHNNEVFHEPHIADSWPQLQDHFSAVKLVGPEEALSPGEARDMAMDLCRQDPECEFYFSLDADAVLTNLQTLRILIEENRKVIAPMLSRHGKLWSNFWGALSPDEYYARSEDYVELVQRKRVGVWNVPYISQAYVIRGDTLRMELPQRDVFSGSDTDPDMAFCKSFRDKGIFLHLSNQHEFGRLLATSRYDTEHLHPDLWQIFDNPVDWKEQYIHENYSRALEGEGIVEQPCPDVYWFPLLSEQMCDELVAEMEHYGQWSGGRHEDSRLAGGYENVPTVDIHMKQVGYEDQWLQLLRTYVGPMTESLFPGYHTKARAVMNFVVRYRPDEQPSLRPHHDSSTFTLNVALNHKGLDYEGGGCRFLRYDCVISSPRKGWALLHPGRLTHYHEGLPTTWGTRYIMVSFVDP
partner: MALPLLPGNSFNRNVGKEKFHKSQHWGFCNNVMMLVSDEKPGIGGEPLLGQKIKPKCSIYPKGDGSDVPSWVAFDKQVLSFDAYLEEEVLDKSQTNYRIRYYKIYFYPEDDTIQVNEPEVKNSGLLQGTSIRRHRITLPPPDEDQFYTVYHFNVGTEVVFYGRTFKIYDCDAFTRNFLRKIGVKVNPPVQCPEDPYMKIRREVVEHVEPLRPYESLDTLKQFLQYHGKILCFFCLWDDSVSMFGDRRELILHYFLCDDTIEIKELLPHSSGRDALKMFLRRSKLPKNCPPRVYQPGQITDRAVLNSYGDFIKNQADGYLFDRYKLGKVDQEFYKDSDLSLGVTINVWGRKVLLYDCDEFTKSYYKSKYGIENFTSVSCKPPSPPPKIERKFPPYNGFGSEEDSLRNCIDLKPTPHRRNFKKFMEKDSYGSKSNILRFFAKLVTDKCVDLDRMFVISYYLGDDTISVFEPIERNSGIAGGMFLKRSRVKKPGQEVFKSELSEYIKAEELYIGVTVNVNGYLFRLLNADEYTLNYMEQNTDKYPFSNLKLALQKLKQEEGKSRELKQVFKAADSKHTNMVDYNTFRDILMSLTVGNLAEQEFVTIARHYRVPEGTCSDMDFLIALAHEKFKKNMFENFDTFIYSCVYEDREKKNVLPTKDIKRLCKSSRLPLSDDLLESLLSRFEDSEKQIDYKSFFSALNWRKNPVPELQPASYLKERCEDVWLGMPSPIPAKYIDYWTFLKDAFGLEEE
B6: Low density lipoprotein receptor adapter protein 1 (Homo sapiens), Q5SW96 (parent)
chain: MDALKSAGRALIRSPSLAKQSWGGGGRHRKLPENWTDTRETLLEGMLFSLKYLGMTLVEQPKGEELSAAAIKRIVATAKASGKKLQKVTLKVSPRGIILTDNLTNQLIENVSIYRISYCTADKMHDKVFAYIAQSQHNQSLECHAFLCTKRKMAQAVTLTVAQAFKVAFEFWQVSKEEKEKRDKASQEGGDVLGARQDCTPSLKSLVATGNLLDLEETAKAPLSTVSANTTNMDEVPRPQALSGSSVVWELDDGLDEAFSRLAQSRTNPQVLDTGLTAQDMHYAQCLSPVDWDKPDSSGTEQDDLFSF
partner: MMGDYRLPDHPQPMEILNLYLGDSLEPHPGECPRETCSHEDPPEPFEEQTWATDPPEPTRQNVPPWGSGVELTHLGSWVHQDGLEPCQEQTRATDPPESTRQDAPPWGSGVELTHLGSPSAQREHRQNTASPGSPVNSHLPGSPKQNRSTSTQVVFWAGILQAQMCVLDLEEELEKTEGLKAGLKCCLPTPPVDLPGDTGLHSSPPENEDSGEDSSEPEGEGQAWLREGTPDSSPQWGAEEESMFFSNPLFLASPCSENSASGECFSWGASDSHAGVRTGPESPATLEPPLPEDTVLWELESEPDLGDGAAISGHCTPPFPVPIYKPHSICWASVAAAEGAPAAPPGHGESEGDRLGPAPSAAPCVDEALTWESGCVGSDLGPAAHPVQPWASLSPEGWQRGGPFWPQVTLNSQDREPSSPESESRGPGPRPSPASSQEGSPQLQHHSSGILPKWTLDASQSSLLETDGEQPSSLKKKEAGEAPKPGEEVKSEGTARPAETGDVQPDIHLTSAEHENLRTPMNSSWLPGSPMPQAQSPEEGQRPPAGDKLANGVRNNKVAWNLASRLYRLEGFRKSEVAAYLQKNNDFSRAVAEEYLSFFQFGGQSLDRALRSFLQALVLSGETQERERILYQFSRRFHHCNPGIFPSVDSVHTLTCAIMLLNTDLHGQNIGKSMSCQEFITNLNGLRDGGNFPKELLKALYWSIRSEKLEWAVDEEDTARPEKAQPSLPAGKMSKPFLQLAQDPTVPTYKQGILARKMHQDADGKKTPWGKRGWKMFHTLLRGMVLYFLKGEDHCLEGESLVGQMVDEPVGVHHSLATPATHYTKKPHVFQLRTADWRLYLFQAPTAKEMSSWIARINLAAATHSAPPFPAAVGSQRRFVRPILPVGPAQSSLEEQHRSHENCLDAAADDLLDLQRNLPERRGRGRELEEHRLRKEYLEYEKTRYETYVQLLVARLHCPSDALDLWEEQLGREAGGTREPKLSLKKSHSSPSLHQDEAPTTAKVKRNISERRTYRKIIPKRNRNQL
B7: Chorion-specific transcription factor GCMb (Homo sapiens), O75603 (parent)
chain: MPAAAVQEAVGVCSYGMQLSWDINDPQMPQELALFDQFREWPDGYVRFIYSSDEKKAQRHLSGWAMRNTNNHNGHILKKSCLGVVVCTQACTLPDGSRLQLRPAICDKARLKQQKKACPNCHSALELIPCRGHSGYPVTNFWRLDGNAIFFQAKGVHDHPRPESKSETEARRSAIKRQMASFYQPQKKRIRESEAEENQDSSGHFSNIPPLENPEDFDIVTETSFPIPGQPCPSFPKSDVYKATCDLATFQGDKMPPFQKYSSPRIYLPRPPCSYELANPGYTNSSPYPTLYKDSTSIPNDTDWVHLNTLQCNVNSYSSYERSFDFTNKQHGWKPALGKPSLVERTNHGQFQAMATRPYYNPELPCRYLTTPPPGAPALQTVITTTTKVSYQAYQPPAMKYSDSVREVKSLSSCNYAPEDTGMSVYPEPWGPPVTVTRAASPSGPPPMKIAGDCRAIRPTVAIPHEPVSSRTDEAETWDVCLSGLGSAVSYSDRVGPFFTYNNEDF

Variants of B1 are the subject of one test. To be noted: with CBY2, Q8NA61-2.
With R190C, the “effect of a mutation on the interaction” value was “with no effect”. Same read-out and setting: the result for A135T reads “with no effect”.

In another test the parent is B2. To be noted: with CBY2, Q8NA61-2.
For R472I, the “effect of a mutation on the interaction” value is listed as “with no effect”. As to G244D, the “effect of a mutation on the interaction” value is listed as “with no effect”. Consider S44F, for which the “effect of a mutation on the interaction” value is “disrupting interaction strength”.

In a further test the parent is B3. Conditions: with ima4_human KPNA3, O00505.
Sequence of ima4_human KPNA3, O00505 (O00505 whole entry): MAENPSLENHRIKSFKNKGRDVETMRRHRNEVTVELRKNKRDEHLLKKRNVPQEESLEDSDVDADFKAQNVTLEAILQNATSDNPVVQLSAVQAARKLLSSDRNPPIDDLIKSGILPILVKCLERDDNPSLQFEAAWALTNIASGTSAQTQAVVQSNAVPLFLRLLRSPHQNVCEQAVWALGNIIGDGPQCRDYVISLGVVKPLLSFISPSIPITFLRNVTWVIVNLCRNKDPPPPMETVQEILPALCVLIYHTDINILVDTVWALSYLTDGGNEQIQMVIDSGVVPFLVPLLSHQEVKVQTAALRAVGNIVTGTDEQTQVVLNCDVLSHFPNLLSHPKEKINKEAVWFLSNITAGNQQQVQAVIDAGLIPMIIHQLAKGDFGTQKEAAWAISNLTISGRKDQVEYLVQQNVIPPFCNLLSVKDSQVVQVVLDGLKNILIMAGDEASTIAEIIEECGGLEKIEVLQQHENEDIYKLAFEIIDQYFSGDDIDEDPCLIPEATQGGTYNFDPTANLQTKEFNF
Consider V118A, for which the “effect of a mutation on the interaction” value was “with no effect”.

The variants in a further test derive from B4. Conditions: with gga2_human GGA2, Q9UJY4.
As for S100P, the “effect of a mutation on the interaction” value is recorded as “disrupting interaction strength”.

The variants in a further test derive from B5. Conditions: with efhc2_human EFHC2, Q5JST6.
On to N223S, for which the “effect of a mutation on the interaction” value is “with no effect”.

In the next test the parent is B6. To be noted: with PSD4, Q8NDX1-2.
As to R238W, the “effect of a mutation on the interaction” value is reported as “with no effect”.

Another test covers variants of B7. To be noted: with crx_human CRX.
With G203S, the “effect of a mutation on the interaction” value is “with no effect”.

Variants of B7 are the subject of another test. To be noted: with RBPMS.
As to G203S, the “effect of a mutation on the interaction” value is given as “with no effect”.
